Starred links: 1 amine or outer side, 2 acyl side, 3 side chain; linkers in the order of their positions; H or OH if unused. Non-standard residues stand in square brackets, D forms with d. Groups on a side chain read outwards from the residue. No end group written: not given here. *: point of attachment. C20 diacid = O=C(O)CCCCCCCCCCCCCCCCCCC(=O)*; αMePhe(2-F) = C[C@](N)(Cc1ccccc1F)C(=O)O; γGlu = O=C(O)[C@H](CCC(=O)[*:2])N[*:1]; αMeF = C[C@](N)(Cc1ccccc1)C(=O)O; 4Pal = N[C@@H](Cc1ccncc1)C(=O)O; AEEA = NCCOCCOCC(=O)O; Aib = CC(C)(N)C(=O)O
T1: human glucose-dependent insulinotropic peptide receptor (human, UniProt P48546 22-466)
T1 sequence (looked up): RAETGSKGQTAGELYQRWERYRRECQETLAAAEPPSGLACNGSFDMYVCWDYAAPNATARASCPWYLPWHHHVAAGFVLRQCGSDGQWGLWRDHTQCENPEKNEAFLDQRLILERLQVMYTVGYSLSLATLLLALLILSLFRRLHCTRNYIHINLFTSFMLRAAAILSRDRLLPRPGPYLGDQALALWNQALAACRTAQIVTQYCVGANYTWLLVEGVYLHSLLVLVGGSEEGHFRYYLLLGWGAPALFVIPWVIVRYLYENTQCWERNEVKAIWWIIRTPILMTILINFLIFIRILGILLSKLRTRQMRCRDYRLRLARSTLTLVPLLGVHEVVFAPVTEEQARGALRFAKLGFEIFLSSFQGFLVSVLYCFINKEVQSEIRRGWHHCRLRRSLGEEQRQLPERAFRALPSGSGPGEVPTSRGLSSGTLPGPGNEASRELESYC

B1: Example 43 (peptide)
peptide: Y[Aib]EGT[αMeF]ISDYSIALDKK([AEEA-AEEA-γGlu-C20 diacid])HQ[Aib]DFVE[4Pal]LLEAGPSSGAPPPS-NH2
modifications: N-terminus assumed
SMILES: CC[C@H](C)[C@H](NC(=O)[C@H](CO)NC(=O)[C@H](Cc1ccc(O)cc1)NC(=O)[C@H](CC(=O)O)NC(=O)[C@H](CO)NC(=O)[C@@H](NC(=O)[C@](C)(Cc1ccccc1)NC(=O)[C@@H](NC(=O)CNC(=O)[C@H](CCC(=O)O)NC(=O)C(C)(C)NC(=O)[C@@H](N)Cc1ccc(O)cc1)[C@@H](C)O)[C@@H](C)CC)C(=O)N[C@@H](C)C(=O)N[C@@H](CC(C)C)C(=O)N[C@@H](CC(=O)O)C(=O)N[C@@H](CCCCN)C(=O)N[C@@H](CCCCNC(=O)COCCOCCNC(=O)COCCOCCNC(=O)CC[C@H](NC(=O)CCCCCCCCCCCCCCCCCCC(=O)O)C(=O)O)C(=O)N[C@@H](Cc1c[nH]cn1)C(=O)N[C@@H](CCC(N)=O)C(=O)NC(C)(C)C(=O)N[C@@H](CC(=O)O)C(=O)N[C@@H](Cc1ccccc1)C(=O)N[C@H](C(=O)N[C@@H](CCC(=O)O)C(=O)N[C@@H](Cc1ccncc1)C(=O)N[C@@H](CC(C)C)C(=O)N[C@@H](CC(C)C)C(=O)N[C@@H](CCC(=O)O)C(=O)N[C@@H](C)C(=O)NCC(=O)N1CCC[C@H]1C(=O)N[C@@H](CO)C(=O)N[C@@H](CO)C(=O)NCC(=O)N[C@@H](C)C(=O)N1CCC[C@H]1C(=O)N1CCC[C@H]1C(=O)N1CCC[C@H]1C(=O)N[C@@H](CO)C(N)=O)C(C)C
B2: Example 41 (peptide)
peptide: Y[Aib]EGT[αMeF]ISDYSIALDKK([AEEA-AEEA-γGlu-C20 diacid])HQ[Aib]DFVE[4Pal]LLETGPSSGAPPPS-NH2
modifications: N-terminus assumed
SMILES: CC[C@H](C)[C@H](NC(=O)[C@H](CO)NC(=O)[C@H](Cc1ccc(O)cc1)NC(=O)[C@H](CC(=O)O)NC(=O)[C@H](CO)NC(=O)[C@@H](NC(=O)[C@](C)(Cc1ccccc1)NC(=O)[C@@H](NC(=O)CNC(=O)[C@H](CCC(=O)O)NC(=O)C(C)(C)NC(=O)[C@@H](N)Cc1ccc(O)cc1)[C@@H](C)O)[C@@H](C)CC)C(=O)N[C@@H](C)C(=O)N[C@@H](CC(C)C)C(=O)N[C@@H](CC(=O)O)C(=O)N[C@@H](CCCCN)C(=O)N[C@@H](CCCCNC(=O)COCCOCCNC(=O)COCCOCCNC(=O)CC[C@H](NC(=O)CCCCCCCCCCCCCCCCCCC(=O)O)C(=O)O)C(=O)N[C@@H](Cc1c[nH]cn1)C(=O)N[C@@H](CCC(N)=O)C(=O)NC(C)(C)C(=O)N[C@@H](CC(=O)O)C(=O)N[C@@H](Cc1ccccc1)C(=O)N[C@H](C(=O)N[C@@H](CCC(=O)O)C(=O)N[C@@H](Cc1ccncc1)C(=O)N[C@@H](CC(C)C)C(=O)N[C@@H](CC(C)C)C(=O)N[C@@H](CCC(=O)O)C(=O)N[C@H](C(=O)NCC(=O)N1CCC[C@H]1C(=O)N[C@@H](CO)C(=O)N[C@@H](CO)C(=O)NCC(=O)N[C@@H](C)C(=O)N1CCC[C@H]1C(=O)N1CCC[C@H]1C(=O)N1CCC[C@H]1C(=O)N[C@@H](CO)C(N)=O)[C@@H](C)O)C(C)C
B3: Example 40 (peptide)
peptide: Y[Aib]EGT[αMePhe(2-F)]ISDYSIALDKK([AEEA-AEEA-γGlu-C20 diacid])HQ[Aib]DFVEWLLETGPSSGAPPPS-NH2
modifications: N-terminus assumed
SMILES: CC[C@H](C)[C@H](NC(=O)[C@H](CO)NC(=O)[C@H](Cc1ccc(O)cc1)NC(=O)[C@H](CC(=O)O)NC(=O)[C@H](CO)NC(=O)[C@@H](NC(=O)[C@](C)(Cc1ccccc1F)NC(=O)[C@@H](NC(=O)CNC(=O)[C@H](CCC(=O)O)NC(=O)C(C)(C)NC(=O)[C@@H](N)Cc1ccc(O)cc1)[C@@H](C)O)[C@@H](C)CC)C(=O)N[C@@H](C)C(=O)N[C@@H](CC(C)C)C(=O)N[C@@H](CC(=O)O)C(=O)N[C@@H](CCCCN)C(=O)N[C@@H](CCCCNC(=O)COCCOCCNC(=O)COCCOCCNC(=O)CC[C@H](NC(=O)CCCCCCCCCCCCCCCCCCC(=O)O)C(=O)O)C(=O)N[C@@H](Cc1c[nH]cn1)C(=O)N[C@@H](CCC(N)=O)C(=O)NC(C)(C)C(=O)N[C@@H](CC(=O)O)C(=O)N[C@@H](Cc1ccccc1)C(=O)N[C@H](C(=O)N[C@@H](CCC(=O)O)C(=O)N[C@@H](Cc1c[nH]c2ccccc12)C(=O)N[C@@H](CC(C)C)C(=O)N[C@@H](CC(C)C)C(=O)N[C@@H](CCC(=O)O)C(=O)N[C@H](C(=O)NCC(=O)N1CCC[C@H]1C(=O)N[C@@H](CO)C(=O)N[C@@H](CO)C(=O)NCC(=O)N[C@@H](C)C(=O)N1CCC[C@H]1C(=O)N1CCC[C@H]1C(=O)N1CCC[C@H]1C(=O)N[C@@H](CO)C(N)=O)[C@@H](C)O)C(C)C
B4: Example 38 (peptide)
peptide: Y[Aib]EGT[αMePhe(2-F)]ISDYSIALDKK([AEEA-AEEA-γGlu-C20 diacid])HQ[Aib]DFVE[4Pal]LLETGPSSGAPPPS-NH2
modifications: N-terminus assumed
SMILES: CC[C@H](C)[C@H](NC(=O)[C@H](CO)NC(=O)[C@H](Cc1ccc(O)cc1)NC(=O)[C@H](CC(=O)O)NC(=O)[C@H](CO)NC(=O)[C@@H](NC(=O)[C@](C)(Cc1ccccc1F)NC(=O)[C@@H](NC(=O)CNC(=O)[C@H](CCC(=O)O)NC(=O)C(C)(C)NC(=O)[C@@H](N)Cc1ccc(O)cc1)[C@@H](C)O)[C@@H](C)CC)C(=O)N[C@@H](C)C(=O)N[C@@H](CC(C)C)C(=O)N[C@@H](CC(=O)O)C(=O)N[C@@H](CCCCN)C(=O)N[C@@H](CCCCNC(=O)COCCOCCNC(=O)COCCOCCNC(=O)CC[C@H](NC(=O)CCCCCCCCCCCCCCCCCCC(=O)O)C(=O)O)C(=O)N[C@@H](Cc1c[nH]cn1)C(=O)N[C@@H](CCC(N)=O)C(=O)NC(C)(C)C(=O)N[C@@H](CC(=O)O)C(=O)N[C@@H](Cc1ccccc1)C(=O)N[C@H](C(=O)N[C@@H](CCC(=O)O)C(=O)N[C@@H](Cc1ccncc1)C(=O)N[C@@H](CC(C)C)C(=O)N[C@@H](CC(C)C)C(=O)N[C@@H](CCC(=O)O)C(=O)N[C@H](C(=O)NCC(=O)N1CCC[C@H]1C(=O)N[C@@H](CO)C(=O)N[C@@H](CO)C(=O)NCC(=O)N[C@@H](C)C(=O)N1CCC[C@H]1C(=O)N1CCC[C@H]1C(=O)N1CCC[C@H]1C(=O)N[C@@H](CO)C(N)=O)[C@@H](C)O)C(C)C
B5: Example 39 (peptide)
peptide: Y[Aib]EGT[αMePhe(2-F)]ISDYSIALDKK([AEEA-AEEA-γGlu-C20 diacid])HQ[Aib]DFVE[4Pal]LLEGGPSSGAPPPS-NH2
modifications: N-terminus assumed
SMILES: CC[C@H](C)[C@H](NC(=O)[C@H](CO)NC(=O)[C@H](Cc1ccc(O)cc1)NC(=O)[C@H](CC(=O)O)NC(=O)[C@H](CO)NC(=O)[C@@H](NC(=O)[C@](C)(Cc1ccccc1F)NC(=O)[C@@H](NC(=O)CNC(=O)[C@H](CCC(=O)O)NC(=O)C(C)(C)NC(=O)[C@@H](N)Cc1ccc(O)cc1)[C@@H](C)O)[C@@H](C)CC)C(=O)N[C@@H](C)C(=O)N[C@@H](CC(C)C)C(=O)N[C@@H](CC(=O)O)C(=O)N[C@@H](CCCCN)C(=O)N[C@@H](CCCCNC(=O)COCCOCCNC(=O)COCCOCCNC(=O)CC[C@H](NC(=O)CCCCCCCCCCCCCCCCCCC(=O)O)C(=O)O)C(=O)N[C@@H](Cc1c[nH]cn1)C(=O)N[C@@H](CCC(N)=O)C(=O)NC(C)(C)C(=O)N[C@@H](CC(=O)O)C(=O)N[C@@H](Cc1ccccc1)C(=O)N[C@H](C(=O)N[C@@H](CCC(=O)O)C(=O)N[C@@H](Cc1ccncc1)C(=O)N[C@@H](CC(C)C)C(=O)N[C@@H](CC(C)C)C(=O)N[C@@H](CCC(=O)O)C(=O)NCC(=O)NCC(=O)N1CCC[C@H]1C(=O)N[C@@H](CO)C(=O)N[C@@H](CO)C(=O)NCC(=O)N[C@@H](C)C(=O)N1CCC[C@H]1C(=O)N1CCC[C@H]1C(=O)N1CCC[C@H]1C(=O)N[C@@H](CO)C(N)=O)C(C)C
B6: Example 42 (peptide)
peptide: Y[Aib]EGT[αMeF]ISDYSIALDKK([AEEA-AEEA-γGlu-C20 diacid])HQ[Aib]DFVE[4Pal]LLEQGPSSGAPPPS-NH2
modifications: N-terminus assumed
SMILES: CC[C@H](C)[C@H](NC(=O)[C@H](CO)NC(=O)[C@H](Cc1ccc(O)cc1)NC(=O)[C@H](CC(=O)O)NC(=O)[C@H](CO)NC(=O)[C@@H](NC(=O)[C@](C)(Cc1ccccc1)NC(=O)[C@@H](NC(=O)CNC(=O)[C@H](CCC(=O)O)NC(=O)C(C)(C)NC(=O)[C@@H](N)Cc1ccc(O)cc1)[C@@H](C)O)[C@@H](C)CC)C(=O)N[C@@H](C)C(=O)N[C@@H](CC(C)C)C(=O)N[C@@H](CC(=O)O)C(=O)N[C@@H](CCCCN)C(=O)N[C@@H](CCCCNC(=O)COCCOCCNC(=O)COCCOCCNC(=O)CC[C@H](NC(=O)CCCCCCCCCCCCCCCCCCC(=O)O)C(=O)O)C(=O)N[C@@H](Cc1c[nH]cn1)C(=O)N[C@@H](CCC(N)=O)C(=O)NC(C)(C)C(=O)N[C@@H](CC(=O)O)C(=O)N[C@@H](Cc1ccccc1)C(=O)N[C@H](C(=O)N[C@@H](CCC(=O)O)C(=O)N[C@@H](Cc1ccncc1)C(=O)N[C@@H](CC(C)C)C(=O)N[C@@H](CC(C)C)C(=O)N[C@@H](CCC(=O)O)C(=O)N[C@@H](CCC(N)=O)C(=O)NCC(=O)N1CCC[C@H]1C(=O)N[C@@H](CO)C(=O)N[C@@H](CO)C(=O)NCC(=O)N[C@@H](C)C(=O)N1CCC[C@H]1C(=O)N1CCC[C@H]1C(=O)N1CCC[C@H]1C(=O)N[C@@H](CO)C(N)=O)C(C)C

Molecular target: human glucagon receptor (human, UniProt P47871 26-477)
Sequence (P47871 26-477): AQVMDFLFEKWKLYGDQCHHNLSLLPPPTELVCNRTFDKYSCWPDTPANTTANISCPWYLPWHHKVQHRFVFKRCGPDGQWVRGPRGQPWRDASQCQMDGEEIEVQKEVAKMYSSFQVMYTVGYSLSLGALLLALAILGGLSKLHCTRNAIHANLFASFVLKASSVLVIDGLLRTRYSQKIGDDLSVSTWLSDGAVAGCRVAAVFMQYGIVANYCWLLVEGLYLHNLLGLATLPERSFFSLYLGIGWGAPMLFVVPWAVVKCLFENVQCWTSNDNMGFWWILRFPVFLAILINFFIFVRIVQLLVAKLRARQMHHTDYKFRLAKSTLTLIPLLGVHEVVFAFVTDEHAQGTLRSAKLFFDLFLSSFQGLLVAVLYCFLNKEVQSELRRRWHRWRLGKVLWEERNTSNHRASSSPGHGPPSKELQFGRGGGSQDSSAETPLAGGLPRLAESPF
Assay: cell-based or functional assay

| Binder | hGcgR cAMP Rel EC50 [µM] |
| --- | --- |
| B1 | > 5 |
| B2 | > 5 |
| B3 | > 5 |
| B4 | > 5 |
| B5 | > 5 |
| B6 | > 5 |

Molecular target: T1, human glucose-dependent insulinotropic …
Assay: cell-based or functional assay

| Binder | hGIPR cAMP Rel EC50 [pM] |
| --- | --- |
| B1 | 15.4 |
| B2 | 28.1 |
| B3 | 33 |
| B4 | 36.8 |
| B5 | 11.2 |
| B6 | 9.1 |

Molecular target: human GLP-1 receptor (human, UniProt P43220 24-463)
Assay: cell-based or functional assay

| Binder | hGLP1R cAMP Rel EC50 [µM] |
| --- | --- |
| B1 | 1.02 |
| B2 | 1.8 |
| B3 | 2.33 |
| B4 | 1.39 |
| B5 | 3.33 |
| B6 | 0.815 |
